The text below walks through data of US20100316641A1 (US Dept. of Health and Human Services, published 2010).

The target in the assay is T1, Bal gp120-CD4 (HIV-1 (Bal isolate)).
T1 construct: domain: gp120;domain: two-domain CD4; also called gp120Bal-CD4; panning antigen; not shown: junction or linker between gp120 and CD4 is not described
Put plainly: ELISA, antigen coated, purified refolded nAb, anti-His-HRP.

B1: m1a1 (designed binder)
chain: APELLGGPSVFLFPPKPKDTLMISRTPEVTCVVVDYDYDSYFDFGKFNWYVDGVEVHNAKTKPREEQYNSTYRVVSVLTVLHQDWLNGKEYKCKVSNSDSAASGPIEKTISKAK
notes: also called CH2 clone m1a1; nAb m1a1; not shown: C-terminal His tag used for detection
Regarding B1, a half-maximal response (EC50) required 500 nM.

B2: m1a2 (designed binder)
chain: APELLGGPSVFLFPPKPKDTLMISRTPEVTCVVVDYDYDSYYDGKFNWYVDGVEVHNAKTKPREEQYNSTYRVVSVLTVLHQDWLNGKEYKCKVSNDDYAADGPIEKTISKAK
notes: also called CH2 clone m1a2; nAb m1a2; not shown: C-terminal His tag used for detection
B2: the EC50 – broadly, the midpoint of the concentration-response curve – was 500 nM.
